Patent US20150203577A1 (Chugai, published 2015)

T1: mouse FcγRII extracellular domain, C-terminal His tag (mouse, UniProt P08101 30-210)
T1 construct: also called mFcγRII; mFcgRII
T1 sequence: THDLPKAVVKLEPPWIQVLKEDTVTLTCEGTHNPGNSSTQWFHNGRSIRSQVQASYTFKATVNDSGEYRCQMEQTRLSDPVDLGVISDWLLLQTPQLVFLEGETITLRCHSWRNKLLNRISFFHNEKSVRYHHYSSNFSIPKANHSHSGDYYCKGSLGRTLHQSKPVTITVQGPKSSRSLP

T2: mouse FcγRIII extracellular domain, C-terminal His tag (mouse, UniProt P08508 31-215)
T2 construct: also called mFcγRIII; mFcgRIII
T2 chain: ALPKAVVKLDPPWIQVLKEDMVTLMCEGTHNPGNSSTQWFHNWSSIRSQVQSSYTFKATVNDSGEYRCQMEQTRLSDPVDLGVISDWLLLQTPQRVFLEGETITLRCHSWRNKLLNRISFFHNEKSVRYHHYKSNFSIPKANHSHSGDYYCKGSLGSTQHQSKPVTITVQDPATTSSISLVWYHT

T3: mouse FcγRII extracellular domain with C-terminal His tag (mouse, UniProt P08101 30-210)
T3 construct: Made on the basis of NCBI NP-034317.1; also called mFcγRII; mFcgRII
T3 sequence: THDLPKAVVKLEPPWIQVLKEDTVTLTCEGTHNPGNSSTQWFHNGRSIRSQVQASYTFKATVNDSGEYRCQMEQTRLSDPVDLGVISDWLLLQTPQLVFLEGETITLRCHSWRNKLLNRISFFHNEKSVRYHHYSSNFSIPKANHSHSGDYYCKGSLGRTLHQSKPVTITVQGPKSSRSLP

T4: mouse FcγRIII extracellular domain with C-terminal His tag (mouse, UniProt P08508 31-215)
T4 construct: Made on the basis of NCBI NP-034318.2; also called mFcγRIII; mFcgRIII
T4 chain: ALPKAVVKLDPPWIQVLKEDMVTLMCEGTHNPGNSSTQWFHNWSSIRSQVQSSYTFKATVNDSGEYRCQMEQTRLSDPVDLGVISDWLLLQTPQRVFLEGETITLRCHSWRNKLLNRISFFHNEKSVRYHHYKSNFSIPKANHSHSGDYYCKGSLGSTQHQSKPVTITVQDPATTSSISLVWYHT


Columns and labels:
[1] = biological target: T1, mouse FcγRII extracellular domain, …; test: SPR (Biacore T200), antibody captured on Protein L, mFcγR analyte
[2] = biological target: T2, mouse FcγRIII extracellular domain, …; test: as above
[3] = biological target: T3, mouse FcγRII extracellular domain with …; test: SPR Biacore T200
Experimental: (§1) Each altered antibody was analyzed for its interaction with each Fcγ receptor prepared above using Biacore T100 (GE Healthcare Japan Corp.), Biacore T200 (GE Healthcare Japan Corp.), Biacore A100, or Biacore 4000. The running buffer used was HBS-EP+ (GE Healthcare Japan Corp.). The assay temperature was set to 25° C. The sensor chips used were chips prepared by immobilizing Protein L (ACTIGEN or BioVision) onto Series S Sensor Chip CM5 (GE Healthcare Japan Corp.) or Series S Sensor Chip CM4 (GE Healthcare Japan Corp.) by the amine coupling method.
(§2) In order to calculate the KD value of each altered antibody for FcγR, kinetic analysis was conducted according to the following method: first, the antibody of interest was captured onto any of these chips and allowed to interact with mFcγR diluted with a running buffer. For the obtained sensorgram, the assay results were globally fit into the 1:1 Langmuir binding model using Biacore Evaluation Software to calculate an association rate constant ka (L/mol/s) and a dissociation rate constant kd (1/s). From these values, the dissociation constant KD (mol/L) was calculated.

[4] = biological target: T4, mouse FcγRIII extracellular domain with …; test: SPR Biacore T200
Experimental: as §1, §2

[5] = biological target: T3, mouse FcγRII extracellular domain with …; test: SPR Biacore T200; KD mFcγRIII / KD mFcγRII
Experimental: as §1, §2

Row | Kd [1] [nM] | relative mFcγRII-binding activity (mIgG1 = 1) [1] | Kd [2] [nM] | relative mFcγRIII-binding activity (mIgG1 = 1) [2] | relative mFcγRII-binding activity (mIgG1 = 1) [3] | relative mFcγRIII-binding activity (mIgG1 = 1) [4] | relative I/A (mFcγRII selectivity) (mIgG1 = 1) [5] | Binder
1 | 3.58 | 58.7 fold vs H237-mIgG1/MRAL-k0 | 191 | 1.5 fold vs H237-mIgG1/MRAL-k0 |  |  |  | H237-MB876/MRAL-k0 (antibody, mouse IgG1, kappa, copies: 2 + 2) heavy: QVQLQESGPGLVKPSETLSLTCAVSGHSISHDHAWSWVRQPPGEGLEWIGFISYSGITNYNPSLQGRVTISRDNSKNTLYLQMNSLRAEDTAVYYCARSLARTTAMDYWGEGTLVTVSSAKTTPPSVYPLAPGSAAQTNSMVTLGCLVKGYFPEPVTVTWNSGSLSSGVHTFPAVLQSDLYTLSSSVTVPSSTWPSETVTCNVAHPASSTKVDKKIVPRDCGCKPCICEPNEVEIVFIFPPKPKDVLTITLTPKVTCVVVDISDDDPEVQFSWFVDDVEVHTAQTQPREELFNSTFRSVSELPIMHQDWLNGKEFKCRVNSDGFPAPIYKTISKTKGRPKAPQVYTIPPPKEQMAKDKVSLTCMITDFFPEDITVEWQWNGQPAENYKNTQPIMDTDGSYFVYSKLNVQKSNWEAGNTFTCSVLHEGLHNHHTEKSLSHSPGK light: not shown
2 |  |  |  |  | 40.5 | 3.9 | 10.5 | H237-MB318/MRAL-k0 (antibody, mouse IgG1, kappa, copies: 2 + 2) heavy: QVQLQESGPGLVKPSETLSLTCAVSGHSISHDHAWSWVRQPPGEGLEWIGFISYSGITNYNPSLQGRVTISRDNSKNTLYLQMNSLRAEDTAVYYCARSLARTTAMDYWGEGTLVTVSSAKTTPPSVYPLAPGSAAQTNSMVTLGCLVKGYFPEPVTVTWNSGSLSSGVHTFPAVLQSDLYTLSSSVTVPSSTWPSETVTCNVAHPASSTKVDKKIVPRDCGCKPCICEVEEVEDVFIFPPKPKDVLTITLTPKVTCVVVDISKDDPEVQFSWFVDDVEVHTAQTQPREEQFNSTFRSVSELPIMHQDWLNGKEFKCRVNSAAFPAPIEKTISKTKGRPKAPQVYTIPPPKEQMAKDKVSLTCMITDFFPEDITVEWQWNGQPAENYKNTQPIMDTDGSYFVYSKLNVQKSNWEAGNTFTCSVLHEGLHNHHTEKSLSHSPGK light: not shown
3 |  |  |  |  | 50 | 3.6 | 14.1 | H237-MB319/MRAL-k0 (antibody, mouse IgG1, kappa, copies: 2 + 2) heavy: QVQLQESGPGLVKPSETLSLTCAVSGHSISHDHAWSWVRQPPGEGLEWIGFISYSGITNYNPSLQGRVTISRDNSKNTLYLQMNSLRAEDTAVYYCARSLARTTAMDYWGEGTLVTVSSAKTTPPSVYPLAPGSAAQTNSMVTLGCLVKGYFPEPVTVTWNSGSLSSGVHTFPAVLQSDLYTLSSSVTVPSSTWPSETVTCNVAHPASSTKVDKKIVPRDCGCKPCICEAEEVEDVFIFPPKPKDVLTITLTPKVTCVVVDISKDDPEVQFSWFVDDVEVHTAQTQPREEQFNSTFRSVSELPIMHQDWLNGKEFKCRVNSAAFPAPIEKTISKTKGRPKAPQVYTIPPPKEQMAKDKVSLTCMITDFFPEDITVEWQWNGQPAENYKNTQPIMDTDGSYFVYSKLNVQKSNWEAGNTFTCSVLHEGLHNHHTEKSLSHSPGK light: not shown
4 | 3.8 | 55.3 fold vs H237-mIgG1/MRAL-k0 | 195 | 1.4 fold vs H237-mIgG1/MRAL-k0 |  |  |  | H237-MB877/MRAL-k0 (antibody, mouse IgG1, kappa, copies: 2 + 2) heavy: QVQLQESGPGLVKPSETLSLTCAVSGHSISHDHAWSWVRQPPGEGLEWIGFISYSGITNYNPSLQGRVTISRDNSKNTLYLQMNSLRAEDTAVYYCARSLARTTAMDYWGEGTLVTVSSAKTTPPSVYPLAPGSAAQTNSMVTLGCLVKGYFPEPVTVTWNSGSLSSGVHTFPAVLQSDLYTLSSSVTVPSSTWPSETVTCNVAHPASSTKVDKKIVPRDCGCKPCICEPNEVEIVFIFPPKPKDVLTITLTPKVTCVVVDISDDDPEVQFSWFVDDVEVHTAQTQPREEQFNSTFRSVSELPIMHQDWLNGKEFKCRVDSDGFPAPIERTISKTKGRPKAPQVYTIPPPKEQMAKDKVSLTCMITDFFPEDITVEWQWNGQPAENYKNTQPIMDTDGSYFVYSKLNVQKSNWEAGNTFTCSVLHEGLHNHHTEKSLSHSPGK light: not shown
5 |  |  |  |  | 9.2 | 1.3 | 7.3 | H237-MB322/MRAL-k0 (antibody, mouse IgG1, kappa, copies: 2 + 2) heavy: QVQLQESGPGLVKPSETLSLTCAVSGHSISHDHAWSWVRQPPGEGLEWIGFISYSGITNYNPSLQGRVTISRDNSKNTLYLQMNSLRAEDTAVYYCARSLARTTAMDYWGEGTLVTVSSAKTTPPSVYPLAPGSAAQTNSMVTLGCLVKGYFPEPVTVTWNSGSLSSGVHTFPAVLQSDLYTLSSSVTVPSSTWPSETVTCNVAHPASSTKVDKKIVPRDCGCKPCICEDEEVEDVFIFPPKPKDVLTITLTPKVTCVVVDISKDDPEVQFSWFVDDVEVHTAQTQPREEQFNSTFRSVSELPIMHQDWLNGKEFKCRVNSAAFPAPIEKTISKTKGRPKAPQVYTIPPPKEQMAKDKVSLTCMITDFFPEDITVEWQWNGQPAENYKNTQPIMDTDGSYFVYSKLNVQKSNWEAGNTFTCSVLHEGLHNHHTEKSLSHSPGK light: not shown

Continued, binder first:

Row | Binder | Kd [1] [nM] | relative mFcγRII-binding activity (mIgG1 = 1) [1] | Kd [2] [nM] | relative mFcγRIII-binding activity (mIgG1 = 1) [2] | relative mFcγRII-binding activity (mIgG1 = 1) [3] | relative mFcγRIII-binding activity (mIgG1 = 1) [4] | relative I/A (mFcγRII selectivity) (mIgG1 = 1) [5]
6 | H237-MB306/MRAL-k0 (antibody, mouse IgG1, kappa, copies: 2 + 2) heavy: QVQLQESGPGLVKPSETLSLTCAVSGHSISHDHAWSWVRQPPGEGLEWIGFISYSGITNYNPSLQGRVTISRDNSKNTLYLQMNSLRAEDTAVYYCARSLARTTAMDYWGEGTLVTVSSAKTTPPSVYPLAPGSAAQTNSMVTLGCLVKGYFPEPVTVTWNSGSLSSGVHTFPAVLQSDLYTLSSSVTVPSSTWPSETVTCNVAHPASSTKVDKKIVPRDCGCKPCICTAPEVEDVFIFPPKPKDVLTITLTPKVTCVVVDISKDDPEVQFSWFVDDVEVHTAQTQPREEQFNSTFRSVSELPIMHQDWLNGKEFKCRVNSAAFPAPIEKTISKTKGRPKAPQVYTIPPPKEQMAKDKVSLTCMITDFFPEDITVEWQWNGQPAENYKNTQPIMDTDGSYFVYSKLNVQKSNWEAGNTFTCSVLHEGLHNHHTEKSLSHSPGK light: not shown |  |  |  |  | 65.8 | 4.2 | 15.7
7 | H237-MB313/MRAL-k0 (antibody, mouse IgG1, kappa, copies: 2 + 2) heavy: QVQLQESGPGLVKPSETLSLTCAVSGHSISHDHAWSWVRQPPGEGLEWIGFISYSGITNYNPSLQGRVTISRDNSKNTLYLQMNSLRAEDTAVYYCARSLARTTAMDYWGEGTLVTVSSAKTTPPSVYPLAPGSAAQTNSMVTLGCLVKGYFPEPVTVTWNSGSLSSGVHTFPAVLQSDLYTLSSSVTVPSSTWPSETVTCNVAHPASSTKVDKKIVPRDCGCKPCICTVEEVEDVFIFPPKPKDVLTITLTPKVTCVVVDISKDDPEVQFSWFVDDVEVHTAQTQPREEQFNSTFRSVSELPIMHQDWLNGKEFKCRVNSAAFPAPIEKTISKTKGRPKAPQVYTIPPPKEQMAKDKVSLTCMITDFFPEDITVEWQWNGQPAENYKNTQPIMDTDGSYFVYSKLNVQKSNWEAGNTFTCSVLHEGLHNHHTEKSLSHSPGK light: not shown |  |  |  |  | 40.1 | 4 | 10.1
8 | H237-MB310/MRAL-k0 (antibody, mouse IgG1, kappa, copies: 2 + 2) heavy: QVQLQESGPGLVKPSETLSLTCAVSGHSISHDHAWSWVRQPPGEGLEWIGFISYSGITNYNPSLQGRVTISRDNSKNTLYLQMNSLRAEDTAVYYCARSLARTTAMDYWGEGTLVTVSSAKTTPPSVYPLAPGSAAQTNSMVTLGCLVKGYFPEPVTVTWNSGSLSSGVHTFPAVLQSDLYTLSSSVTVPSSTWPSETVTCNVAHPASSTKVDKKIVPRDCGCKPCICTDPEVEDVFIFPPKPKDVLTITLTPKVTCVVVDISKDDPEVQFSWFVDDVEVHTAQTQPREEQFNSTFRSVSELPIMHQDWLNGKEFKCRVNSAAFPAPIEKTISKTKGRPKAPQVYTIPPPKEQMAKDKVSLTCMITDFFPEDITVEWQWNGQPAENYKNTQPIMDTDGSYFVYSKLNVQKSNWEAGNTFTCSVLHEGLHNHHTEKSLSHSPGK light: not shown |  |  |  |  | 38.8 | 3.8 | 10.1
9 | H237-MB302/MRAL-k0 (antibody, mouse IgG1, kappa, copies: 2 + 2) heavy: QVQLQESGPGLVKPSETLSLTCAVSGHSISHDHAWSWVRQPPGEGLEWIGFISYSGITNYNPSLQGRVTISRDNSKNTLYLQMNSLRAEDTAVYYCARSLARTTAMDYWGEGTLVTVSSAKTTPPSVYPLAPGSAAQTNSMVTLGCLVKGYFPEPVTVTWNSGSLSSGVHTFPAVLQSDLYTLSSSVTVPSSTWPSETVTCNVAHPASSTKVDKKIVPRDCGCKPCICEVPEVEDVFIFPPKPKDVLTITLTPKVTCVVVDISKDDPEVQFSWFVDDVEVHTAQTQPREEQFNSTFRSVSELPIMHQDWLNGKEFKCRVNSAAFPAPIEKTISKTKGRPKAPQVYTIPPPKEQMAKDKVSLTCMITDFFPEDITVEWQWNGQPAENYKNTQPIMDTDGSYFVYSKLNVQKSNWEAGNTFTCSVLHEGLHNHHTEKSLSHSPGK light: not shown |  |  |  |  | 53.7 | 4.5 | 12
